In the supplement of paper PMC10219994 one finds ligation selection enrichment data, which are given here for 44 variants.

To fix the notation:
B1: library; a variant is named by its letters at N, in order (parent)
chain: GAGACCGCAACTGAAAAGTTGTGGNNNNNATAGTGAGTCGCTGCCTGCAAAGACACAACT

± gives the standard deviation of the averaged measurements.

This data set covers variants of B1. Kind of data set: ligation selection enrichment (abundance after / before one-round selection) (fold); higher = more template-directed ligation activity. The following applies: with T7Psub CACGGAUGCUAAUACGACUCACUAUA; MgCl2 25 mM; 42 °C; 4 h; pH 8.5. As for the experimental part:
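Lib-N5 ligase ribozyme library: five randomized core nucleotides (including the GGA motif of N8-1) within the fixed N8-1 ribozyme flanks, transcribed by T7 RNA polymerase with a 5'-triphosphate. The library (0.75 uM) was reacted with substrate T7Psub (6 uM) in 50 mM EPPS pH 8.5 with 25 mM MgCl2 at 42 C for 4 h. Ligated products were PAGE-purified, reverse transcribed and MiSeq sequenced; enrichment = abundance after selection / abundance before selection, with two independent replicates. The full transcript is built from the printed template flanks.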
For GAGACCGCAACTGAAAAGTTGTGGCCAAAATAGTGAGTCGCTGCCTGCAAAGACACAACT [CCAAA], the ligation selection enrichment was 0.162 ± 0.034.
GAGACCGCAACTGAAAAGTTGTGGCCAACATAGTGAGTCGCTGCCTGCAAAGACACAACT [CCAAC]: the ligation selection enrichment turned out to be 0.217 ± 0.026.
For the variant GAGACCGCAACTGAAAAGTTGTGGCCAATATAGTGAGTCGCTGCCTGCAAAGACACAACT [CCAAT], the ligation selection enrichment worked out at 3.42 ± 0.96.
Regarding GAGACCGCAACTGAAAAGTTGTGGCCAAGATAGTGAGTCGCTGCCTGCAAAGACACAACT [CCAAG], the ligation selection enrichment was 0.349 ± 0.024.
In the case of GAGACCGCAACTGAAAAGTTGTGGGCCCAATAGTGAGTCGCTGCCTGCAAAGACACAACT [GCCCA] it was 0.209 ± 0.023.
The result for GAGACCGCAACTGAAAAGTTGTGGGCCCGATAGTGAGTCGCTGCCTGCAAAGACACAACT [GCCCG] reads 0.803 ± 0.034.
For GAGACCGCAACTGAAAAGTTGTGGGCCCCATAGTGAGTCGCTGCCTGCAAAGACACAACT [GCCCC], the ligation selection enrichment came to 0.227 ± 0.022.
The result for GAGACCGCAACTGAAAAGTTGTGGACAGCATAGTGAGTCGCTGCCTGCAAAGACACAACT [ACAGC] reads 0.135 ± 0.011; that for GAGACCGCAACTGAAAAGTTGTGGACAGGATAGTGAGTCGCTGCCTGCAAAGACACAACT [ACAGG], 0.217 ± 0.025; that for GAGACCGCAACTGAAAAGTTGTGGACAGTATAGTGAGTCGCTGCCTGCAAAGACACAACT [ACAGT], 0.175 ± 0.012.
GAGACCGCAACTGAAAAGTTGTGGACAGAATAGTGAGTCGCTGCCTGCAAAGACACAACT [ACAGA]: the ligation selection enrichment stood at 0.307 ± 0.022.
As for GAGACCGCAACTGAAAAGTTGTGGTCACCATAGTGAGTCGCTGCCTGCAAAGACACAACT [TCACC], the ligation selection enrichment came out at 0.159 ± 0.0071.
The result for GAGACCGCAACTGAAAAGTTGTGGTCACTATAGTGAGTCGCTGCCTGCAAAGACACAACT [TCACT] reads 0.427 ± 0.28.
In the case of GAGACCGCAACTGAAAAGTTGTGGTCACGATAGTGAGTCGCTGCCTGCAAAGACACAACT [TCACG] it was 0.341 ± 0.018; in that of GAGACCGCAACTGAAAAGTTGTGGTCACAATAGTGAGTCGCTGCCTGCAAAGACACAACT [TCACA], 0.115 ± 0.057; in that of GAGACCGCAACTGAAAAGTTGTGGTCCAAATAGTGAGTCGCTGCCTGCAAAGACACAACT [TCCAA], 0.0717 ± 0.015.
For the variant GAGACCGCAACTGAAAAGTTGTGGTCCATATAGTGAGTCGCTGCCTGCAAAGACACAACT [TCCAT], the ligation selection enrichment worked out at 0.303 ± 0.096.
Consider GAGACCGCAACTGAAAAGTTGTGGTCCAGATAGTGAGTCGCTGCCTGCAAAGACACAACT [TCCAG], for which the ligation selection enrichment amounted to 0.128 ± 0.027.
The result for GAGACCGCAACTGAAAAGTTGTGGTCCACATAGTGAGTCGCTGCCTGCAAAGACACAACT [TCCAC] reads 0.118 ± 0.043; that for GAGACCGCAACTGAAAAGTTGTGGCCACTATAGTGAGTCGCTGCCTGCAAAGACACAACT [CCACT], 0.416 ± 0.15.
Regarding GAGACCGCAACTGAAAAGTTGTGGCCACAATAGTGAGTCGCTGCCTGCAAAGACACAACT [CCACA], the ligation selection enrichment worked out at 0.0899 ± 0.017.
The result for GAGACCGCAACTGAAAAGTTGTGGCCACCATAGTGAGTCGCTGCCTGCAAAGACACAACT [CCACC] reads 0.0951 ± 0.0078; that for GAGACCGCAACTGAAAAGTTGTGGCCACGATAGTGAGTCGCTGCCTGCAAAGACACAACT [CCACG], 0.415 ± 0.075.
In the case of GAGACCGCAACTGAAAAGTTGTGGGCAGGATAGTGAGTCGCTGCCTGCAAAGACACAACT [GCAGG] it was 0.189 ± 0.024; in that of GAGACCGCAACTGAAAAGTTGTGGGCAGAATAGTGAGTCGCTGCCTGCAAAGACACAACT [GCAGA], 0.363 ± 0.026.
Regarding GAGACCGCAACTGAAAAGTTGTGGGCAGCATAGTGAGTCGCTGCCTGCAAAGACACAACT [GCAGC], the ligation selection enrichment turned out to be 0.14 ± 0.021.
As for GAGACCGCAACTGAAAAGTTGTGGGCAGTATAGTGAGTCGCTGCCTGCAAAGACACAACT [GCAGT], the ligation selection enrichment was 0.0918 ± 0.00069.
Consider GAGACCGCAACTGAAAAGTTGTGGACCATATAGTGAGTCGCTGCCTGCAAAGACACAACT [ACCAT], for which the ligation selection enrichment was determined as 0.866 ± 0.31.
Turning to GAGACCGCAACTGAAAAGTTGTGGACCAAATAGTGAGTCGCTGCCTGCAAAGACACAACT [ACCAA], the ligation selection enrichment stood at 0.144 ± 0.0063.
In the case of GAGACCGCAACTGAAAAGTTGTGGACCAGATAGTGAGTCGCTGCCTGCAAAGACACAACT [ACCAG] it was 0.207 ± 0.033.
In the case of GAGACCGCAACTGAAAAGTTGTGGACCACATAGTGAGTCGCTGCCTGCAAAGACACAACT [ACCAC] it was 0.165 ± 0.0072.
Consider GAGACCGCAACTGAAAAGTTGTGGACATGATAGTGAGTCGCTGCCTGCAAAGACACAACT [ACATG], for which the ligation selection enrichment was determined as 0.333 ± 0.015.
The result for GAGACCGCAACTGAAAAGTTGTGGACATAATAGTGAGTCGCTGCCTGCAAAGACACAACT [ACATA] reads 0.136 ± 0.019.
With GAGACCGCAACTGAAAAGTTGTGGACATTATAGTGAGTCGCTGCCTGCAAAGACACAACT [ACATT], the ligation selection enrichment came to 0.209 ± 0.099.
For GAGACCGCAACTGAAAAGTTGTGGACATCATAGTGAGTCGCTGCCTGCAAAGACACAACT [ACATC], the ligation selection enrichment came to 0.138 ± 0.056.
In the case of GAGACCGCAACTGAAAAGTTGTGGCCAGCATAGTGAGTCGCTGCCTGCAAAGACACAACT [CCAGC] it was 0.108 ± 0.022; in that of GAGACCGCAACTGAAAAGTTGTGGCCAGAATAGTGAGTCGCTGCCTGCAAAGACACAACT [CCAGA], 0.297 ± 0.02; in that of GAGACCGCAACTGAAAAGTTGTGGCCAGGATAGTGAGTCGCTGCCTGCAAAGACACAACT [CCAGG], 0.178 ± 0.009.
GAGACCGCAACTGAAAAGTTGTGGCCAGTATAGTGAGTCGCTGCCTGCAAAGACACAACT [CCAGT]: the ligation selection enrichment came out at 0.107 ± 0.041.
In the case of GAGACCGCAACTGAAAAGTTGTGGGCCAAATAGTGAGTCGCTGCCTGCAAAGACACAACT [GCCAA] it was 0.222 ± 0.045.
In the case of GAGACCGCAACTGAAAAGTTGTGGGCCATATAGTGAGTCGCTGCCTGCAAAGACACAACT [GCCAT] it was 1.25 ± 0.34.
With GAGACCGCAACTGAAAAGTTGTGGGCCACATAGTGAGTCGCTGCCTGCAAAGACACAACT [GCCAC], the ligation selection enrichment was determined as 0.176 ± 0.031.
As to GAGACCGCAACTGAAAAGTTGTGGGCCAGATAGTGAGTCGCTGCCTGCAAAGACACAACT [GCCAG], the ligation selection enrichment stood at 0.28 ± 0.021.
For GAGACCGCAACTGAAAAGTTGTGGCCCCCATAGTGAGTCGCTGCCTGCAAAGACACAACT [CCCCC], the ligation selection enrichment was 0.199 ± 0.004.
